{
  "source": "paper PMC11271386",
  "about": "(Analytical and Bioanalytical Chemistry, 2024)",
  "binders": {"B1": {"name": "14–3-3θ/YWHAQ (natural protein, human (endogenous in HEK293T), UniProt P27348 1-245, looked up)", "chain": "MEKTELIQKAKLAEQAERYDDMATCMKAVTEQGAELSNEERNLLSVAYKNVVGGRRSAWRVISSIEQKTDTSDKKLQLIKDYREKVESELRSICTTVLELLDKYLIANATNPESKVFYLKMKGDYFRYLAEVACGDDRKQTIDNSQGAYQEAFDISKKEMQPTHPIRLGLALNFSVFYYEILNNPELACTLAKTAFDEAIAELDTLNEDSYKDSTLIMQLLRDNLTLWTSDSAGEECDAAEGAEN", "notes": "14-3-3 theta (YWHAQ), human; source: endogenous, HEK293T lysate"}, "B2": {"name": "PFDN1 (natural protein, human (endogenous in HEK293T), UniProt O60925 1-122, looked up)", "chain": "MAAPVDLELKKAFTELQAKVIDTQQKVKLADIQIEQLNRTKKHAHLTDTEIMTLVDETNMYEGVGRMFILQSKEAIHSQLLEKQKIAEEKIKELEQKKSYLERSVKEAEDNIREMLMARRAQ", "notes": "PFDN1, prefoldin β subunit, human; also called prefoldin β subunit; source: endogenous, HEK293T lysate"}},
  "key": {"[1]": {"target": "T1, ^FlagDNAJB8^WT (human, UniProt Q8NHS0 1-232)", "T1 construct": "DNAJB8, human Class B Hsp40 (J-domain protein); also called Hsp40 DNAJB8; source: HEK293T, transfected (calcium phosphate), in lysate", "T1 sequence (looked up)": "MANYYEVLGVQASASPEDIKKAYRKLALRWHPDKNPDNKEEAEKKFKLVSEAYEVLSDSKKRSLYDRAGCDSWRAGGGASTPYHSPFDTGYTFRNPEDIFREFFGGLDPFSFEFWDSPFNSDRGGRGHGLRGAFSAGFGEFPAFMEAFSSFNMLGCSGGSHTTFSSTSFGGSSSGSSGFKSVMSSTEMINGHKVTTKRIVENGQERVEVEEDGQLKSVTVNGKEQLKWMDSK", "assay": "affinity purification with mass spectrometry; TMT-AP-MS comparing four conditions: ^FlagDNAJB8 WT vs. H31Q, with or without 1 mM DSP crosslinking of the cells before lysis; RIPA lysis and washes, M2 anti-Flag beads; crosslinks reversed with TCEP; three biological replicates", "conditions": "partners not purified"}, "[2]": {"target": "T2, ^FlagDNAJB8^H31Q (human, UniProt Q8NHS0 1-232, H31Q)", "T2 construct": "DNAJB8, human Class B Hsp40, with the J-domain mutation H31Q; source: HEK293T, transfected (calcium phosphate), in lysate", "T2 sequence (looked up)": "T1 sequence (looked up) with H31Q", "assay": "affinity purification with mass spectrometry; TMT-AP-MS comparing four conditions: ^FlagDNAJB8 WT vs. H31Q, with or without 1 mM DSP crosslinking of the cells before lysis; RIPA lysis and washes, M2 anti-Flag beads; crosslinks reversed with TCEP; three biological replicates", "conditions": "partners not purified"}},
  "note": "Changes are numbered by the printed parent chain.",
  "data": [
    {"binder": "B1", "values": [
      {"measurement": "fold change recovery with DSP crosslinking against without", "setting": "[1]", "result": "4.8 ± 0.7", "unit": "%"},
      {"measurement": "fold change recovery with DSP crosslinking against without", "setting": "[2]", "result": "3.2 ± 0.8", "unit": "%"}
    ]},
    {"binder": "B2", "values": [
      {"measurement": "fold change of recovery with DNAJB8^H31Q compared to DNAJB8^WT, −DSP", "setting": "[2]", "result": "3.4 ± 0.9", "unit": "fold"}
    ]}
  ]
}
